According to paper PMC6504561:

Columns and labels:
DYNLT1 (Mus musculus) = DYNLT1 (Mus musculus) (UniProt P51807); test: NMR; conditions: cited from earlier work
[1] = molecular target: FITC-labelled ARHGEF2 peptide 876-891 phosphorylated on Ser885 (not stated (human or mouse cDNA cloned)); test: MST
[2] = molecular target: FITC-labelled ARHGEF2 peptide 142-157 phosphorylated on Ser151 (not stated (human or mouse cDNA cloned)); test: MST

Sequence of DYNLT1 (Mus musculus) (P51807 whole entry): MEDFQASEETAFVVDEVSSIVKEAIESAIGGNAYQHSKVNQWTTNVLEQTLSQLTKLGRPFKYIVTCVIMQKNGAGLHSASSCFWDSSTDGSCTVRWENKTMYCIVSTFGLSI
Sequence of ARHGEF2 peptide 133-161 (Q60875 133-161): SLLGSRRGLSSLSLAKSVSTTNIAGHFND

Substance | Kd (DYNLT1 (Mus musculus)) | Kd [1] | Kd [2]
ARHGEF2 peptide 133-161 (from UniProt Q60875) | 80 µM |  | 
GST-14-3-3 (from UniProt P63101 1-245) (natural protein) |  | 2.3 µM | 11.6 µM
